Experimental data reported in patent publication US20250289885A1 (TRUSTEES OF BOSTON UNIVERSITY, published 2025).

Biological target: T1, human Notch1-derived receptor overexpressed on CHO-K1 cells (human, UniProt P46531 19-1762, limits assumed)
T1 construct: Cells also express H2B-mTurq; also called Notch1 receptors
Assay: fluorescence microscopy of JFX650-labelled probody on CHO-K1 cells overexpressing a human Notch1-derived receptor
Method: FIGS. 36A and 36B present data showing Cleavage-Dependent Binding of a Brontictuzumab-Based Probody to Notch1 Receptors. A probody containing a brontictuzumab-based scFv was fused to a TEV cleavable linker and a soluble form of the human Notch1 NRR. Probodies containing either (FIG. 36A) the V1667D NRR mutant NRR, or (FIG. 36B) wild-type NRR were tested. The probodies also contained a HaloTag for labeling with a JFX650 dye. Binding of the probody to Notch1 receptors was tested using uncleaved and TEV protease-cleaved probody. The evaluated cells were based on CHO-K1 celle overexpressing a human Notch1-derived receptor; cells also expressed H2B-mTurq as a fluorescent marker (inset). Brontictuzumab is an antibody that binds the NRR from Notch1 (NRR1). Brontictuzumab (aka OMP-52M51) is originally from Oncomed Pharmaceuticals. This antibody is distinct from the Genentech anti-NRR1 used in our receptor and other Notch1 probody designs.

T1 sequence (P46531 19-1762 limits assumed): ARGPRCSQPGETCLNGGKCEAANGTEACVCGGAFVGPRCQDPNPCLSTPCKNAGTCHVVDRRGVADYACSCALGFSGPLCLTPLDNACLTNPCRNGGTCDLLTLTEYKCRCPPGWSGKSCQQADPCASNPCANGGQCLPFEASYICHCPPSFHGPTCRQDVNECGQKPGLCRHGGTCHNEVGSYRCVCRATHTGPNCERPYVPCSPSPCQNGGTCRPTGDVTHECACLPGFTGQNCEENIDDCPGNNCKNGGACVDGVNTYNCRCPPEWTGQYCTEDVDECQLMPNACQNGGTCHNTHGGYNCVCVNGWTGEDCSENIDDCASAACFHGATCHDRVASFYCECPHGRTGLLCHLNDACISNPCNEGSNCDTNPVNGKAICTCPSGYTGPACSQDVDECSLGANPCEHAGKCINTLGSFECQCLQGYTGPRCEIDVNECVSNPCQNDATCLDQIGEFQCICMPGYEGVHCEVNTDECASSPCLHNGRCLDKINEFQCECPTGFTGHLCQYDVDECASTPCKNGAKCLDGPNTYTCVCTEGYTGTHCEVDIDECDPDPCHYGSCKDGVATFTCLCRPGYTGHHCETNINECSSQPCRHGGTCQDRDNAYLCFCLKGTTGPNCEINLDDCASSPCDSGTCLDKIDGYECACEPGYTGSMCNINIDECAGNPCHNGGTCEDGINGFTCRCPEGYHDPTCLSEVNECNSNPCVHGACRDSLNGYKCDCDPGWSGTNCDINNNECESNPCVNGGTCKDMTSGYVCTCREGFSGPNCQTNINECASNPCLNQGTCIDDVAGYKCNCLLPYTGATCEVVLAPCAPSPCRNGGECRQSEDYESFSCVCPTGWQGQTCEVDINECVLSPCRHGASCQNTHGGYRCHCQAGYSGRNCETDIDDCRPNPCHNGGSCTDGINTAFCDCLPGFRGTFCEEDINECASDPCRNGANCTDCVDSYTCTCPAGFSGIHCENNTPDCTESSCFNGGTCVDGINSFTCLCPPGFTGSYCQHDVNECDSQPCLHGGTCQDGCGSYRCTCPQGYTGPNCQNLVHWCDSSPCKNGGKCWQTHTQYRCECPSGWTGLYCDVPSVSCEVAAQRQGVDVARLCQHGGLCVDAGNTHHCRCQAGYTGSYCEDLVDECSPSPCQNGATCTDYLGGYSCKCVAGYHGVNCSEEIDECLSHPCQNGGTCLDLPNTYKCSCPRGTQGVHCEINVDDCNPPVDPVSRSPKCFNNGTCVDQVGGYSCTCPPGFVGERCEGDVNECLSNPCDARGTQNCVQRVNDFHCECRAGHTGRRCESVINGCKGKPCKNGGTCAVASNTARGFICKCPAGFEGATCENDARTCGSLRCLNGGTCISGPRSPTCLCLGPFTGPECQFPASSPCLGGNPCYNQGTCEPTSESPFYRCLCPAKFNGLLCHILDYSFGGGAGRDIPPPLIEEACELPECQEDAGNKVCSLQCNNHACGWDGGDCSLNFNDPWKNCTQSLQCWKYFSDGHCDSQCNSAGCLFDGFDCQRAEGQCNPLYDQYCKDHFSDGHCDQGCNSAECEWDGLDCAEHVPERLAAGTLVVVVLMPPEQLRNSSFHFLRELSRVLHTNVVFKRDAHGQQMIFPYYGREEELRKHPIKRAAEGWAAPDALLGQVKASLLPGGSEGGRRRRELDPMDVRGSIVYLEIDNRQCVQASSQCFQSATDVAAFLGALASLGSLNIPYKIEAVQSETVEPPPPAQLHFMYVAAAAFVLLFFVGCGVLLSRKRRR

binding result: no binding
B1: TEV-cleavable Anti-Notch1 probody, with brontictuzumab scFv, Wild-type NRR (HaloTag-brontictuzumab-scFv-TEVcs-hNRR1^WT), intact (uncleaved) (other)
chain: YPYDVPDYATGMAEIGTGFPFDPHYVEVLGERMHYVDVGPRDGTPVLFLHGNPTSSYVWRNIIPHVAPTHRCIAPDLIGMGKSDKPDLGYFFDDHVRFMDAFIEALGLEEVVLVIHDWGSALGFHWAKRNPERVKGIAFMEFIRPIPTWDEWPEFARETFQAFRTTDVGRKLIIDQNVFIEGTLPMGVVRPLTEVEMDHYREPFLNPVDREPLWRFPNELPIAGEPANIVALVEEYMDWLHQSPVPKLLFWGTPGVLIPPAEAARLAKSLPNCKAVDIGPGLNLLQEDNPDLIGSEIARWLSTLEISGGGGGSTGDGGGGQVQLVQSGAEVKKPGASVKISCKVSGYTLRGYWIEWVRQAPGKGLEWIGQILPGTGRTNYNEKFKGRVTMTADTSTDTAYMELSSLRSEDTAVYYCARFDGNYGYYAMDYWGQGTTVTVSSGGSSRSSSSGGGGSGGGGQAVVTQEPSLTVSPGGTVTLTCRSSTGAVTTSNYANWFQQKPGQAPRTLIGGTNNRAPGVPARFSGSLLGGKAALTLSGAQPEDEAEYYCALWYSNHWVFGGGTKLTVLGSNSGGTLEGGGSGENLYFQGGGGGRTGGGSEQKLISEEDLGGGSILDYSFGGGAGRDIPPPLIEEACELPECQEDAGNKVCSLQCNNHACGWDGGDCSLNFNDPWKNCTQSLQCWKYFSDGHCDSQCNSAGCLFDGFDCQRAEGQCNPLYDQYCKDHFSDGHCDQGCNSAECEWDGLDCAEHVPERLAAGTLVVVVLMPPEQLRNSSFHFLRELSRVLHTNVVFKRDAHGQQMIFPYYGREEELRKHPIKRAAEGWAAPDALLGQVKASLLPGGSEGGRRRRELDPMDVRGSIVYLEIDNRQCVQASSQCFQSATDVAAFLGALASLGSLNIPYKIEAVQSETVEPGSLVPRGSSHHHHHHGPV
modifications: HaloTag labelled with JFX650 dye
notes: also called Brontictuzumab-based probody, wild-type NRR
